In doi:10.1101/2020.04.18.045682:

Legend:
[1] = molecular target: type I-D Cascade lacking Cas11d (Synechocystis sp. PCC 6803); assay: negative-stain electron microscopy, 3D reconstruction
[2] = molecular target: Cas10d (Synechocystis sp. PCC 6803); assay: affinity purification with mass spectrometry

| stoichiometry N [1] | stoichiometry N [2] | Substance |
| --- | --- | --- |
| 2 | 2 | Cas11d (natural protein) |
|  | 1 | Cas6d (natural protein) |
|  | 1 | Cas5d (natural protein) |
|  | 6 | Cas7d (natural protein) |
